From article PMC6220480 come the findings set out here.

To fix the notation:
B1: ULBP2 (UL16 binding protein 2), recombinant (ligand)
chain: GRADPHSLCYDITVIPKFRPGPRWCAVQGQVDEKTFLHYDCGNKTVTPVSPLGKKLNVTTAWKAQNPVLREVVDILTEQLRDIQLENYTPKEPLTLQARMSCEQKAEGHSSGSWQFSFDGQIFLLFDSEKRMWTTVHPGARKMKEKWENDKVVAMSFHYFSMGDCIGWLEDFLMGMDSTLEPSAGAPLAMSS
B2: ULBP1 (UL16 binding protein 1), recombinant (ligand)
chain: GWVDTHCLCYDFIITPKSRPEPQWCEVQGLVDERPFLHYDCVNHKAKAFASLGKKVNVTKTWEEQTETLRDVVDFLKGQLLDIQVENLIPIEPLTLQARMSCEHEAHGHGRGSWQFLFNGQKFLLFDSNNRKWTALHPGAKKMTEKWEKNRDVTMFFQKISLGDCKMWLEEFLMYWEQMLDPTKPPSLAPG
B3: ULBP3 (UL16 binding protein 3), recombinant (ligand)
chain: DAHSLWYNFTIIHLPRHGQQWCEVQSQVDQKNFLSYDCGSDKVLSMGHLEEQLYATDAWGKQLEMLREVGQRLRLELADTELEDFTPSGPLTLQVRMSCECEADGYIRGSWQFSFDGRKFLLFDSNNRKWTVVHAGARRMKEKWEKDSGLTTFFKMVSMRDCKSWLRDFLMHRKKRLEPTAPPTMAPG

The target of this assay is NKG2D-based chimeric antigen receptor of CYAD-01 cells (full length human NKG2D fused to the CD3zeta signalling domain) (UniProt P26718).
As to “MICA (major histocompatibility complex class I chain-related A), recombinant (from UniProt Q29983 24-383) (ligand)”, the cytokine secretion by CYAD-01 cells cultured with plate-bound ligand was more than 0.25 µg/mL.

As to “MICB (major histocompatibility complex class I chain-related B), recombinant (from UniProt Q29980 23-383) (ligand)”, the cytokine secretion by CYAD-01 cells cultured with plate-bound ligand was more than 0.25 µg/mL. In the case of B1, the cytokine secretion by CYAD-01 cells cultured with plate-bound ligand is more than 5 µg/mL. For B2 the value was more than 5 µg/mL. B3: the cytokine secretion by CYAD-01 cells cultured with plate-bound ligand was more than 5 µg/mL.
